According to publication PMC11332595:
One block for each molecule: values may come before it.

Columns and labels:
[1] = molecular target: MapSPARTA (binary complex of TIR-APAZ and Ago), wild type (Maribacter polysiphoniae); experiment: SEC
[2] = molecular target: MapSPARTA (binary complex of TIR-APAZ and Ago), wild type (Maribacter polysiphoniae); experiment: cryo-EM structure
[3] = molecular target: MapSPARTA (binary complex of TIR-APAZ and Ago), wild type (Maribacter polysiphoniae); experiment: cryo-EM structure; remark: listed apart in the source
[4] = molecular target: MapSPARTA (binary complex of TIR-APAZ and Ago), wild type (Maribacter polysiphoniae); experiment: cryo-EM structure; remark: listed apart in the source
[5] = molecular target: MapSPARTA V113R (TIR-APAZ V113R with Ago) (Maribacter polysiphoniae); experiment: SEC
[6] = molecular target: MapSPARTA V113R/D106R/D111R (TIR-APAZ triple mutant with Ago) (Maribacter polysiphoniae); experiment: SEC
[7] = molecular target: T1, MapSPARTA WT (Ago + TIR-APAZ) (Maribacter polysiphoniae, UniProt A0A316E3U6;A0A316E683 1-507;1-450); experiment: BLI
T1 sequence 1: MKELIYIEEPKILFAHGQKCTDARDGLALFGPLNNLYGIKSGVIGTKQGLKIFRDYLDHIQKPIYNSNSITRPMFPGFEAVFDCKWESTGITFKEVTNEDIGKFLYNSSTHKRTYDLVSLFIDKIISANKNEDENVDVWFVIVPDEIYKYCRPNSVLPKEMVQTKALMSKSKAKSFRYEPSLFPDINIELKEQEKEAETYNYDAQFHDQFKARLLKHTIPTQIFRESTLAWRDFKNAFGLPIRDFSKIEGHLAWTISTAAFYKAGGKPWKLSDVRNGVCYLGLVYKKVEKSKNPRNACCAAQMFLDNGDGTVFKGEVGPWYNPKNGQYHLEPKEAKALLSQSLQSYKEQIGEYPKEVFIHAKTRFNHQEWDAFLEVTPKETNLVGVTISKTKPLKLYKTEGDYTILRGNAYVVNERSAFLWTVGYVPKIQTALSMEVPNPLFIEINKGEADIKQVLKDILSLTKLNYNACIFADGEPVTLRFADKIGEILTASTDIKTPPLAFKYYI
T1 sequence 2: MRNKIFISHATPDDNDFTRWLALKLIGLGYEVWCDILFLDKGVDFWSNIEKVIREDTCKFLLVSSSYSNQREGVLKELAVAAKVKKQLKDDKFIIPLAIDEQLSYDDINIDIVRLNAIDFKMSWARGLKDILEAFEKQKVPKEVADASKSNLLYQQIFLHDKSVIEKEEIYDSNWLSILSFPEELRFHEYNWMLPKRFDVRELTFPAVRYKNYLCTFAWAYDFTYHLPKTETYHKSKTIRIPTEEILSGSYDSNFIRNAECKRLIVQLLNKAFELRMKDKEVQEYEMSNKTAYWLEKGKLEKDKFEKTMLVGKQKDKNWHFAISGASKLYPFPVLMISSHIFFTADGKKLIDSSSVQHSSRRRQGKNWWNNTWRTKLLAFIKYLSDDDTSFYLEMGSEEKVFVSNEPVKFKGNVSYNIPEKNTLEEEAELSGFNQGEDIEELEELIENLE

- stoichiometry N [1]: 4
- stoichiometry N [2]: 2
- stoichiometry N [3]: 4
- stoichiometry N [4]: 4
Molecule: MapSPARTA (binary complex of TIR-APAZ and Ago), wild type

- stoichiometry N [5]: 2
Molecule: MapSPARTA V113R (TIR-APAZ V113R with Ago) (complex)

- stoichiometry N [6]: 2
Molecule: MapSPARTA V113R/D106R/D111R (TIR-APAZ triple mutant with Ago) (complex)

B1: guide RNA + biotinylated target DNA (BLI) (DNA:RNA)
RNA: UGACGGCUCUAAUCUAUUAGU
DNA: CAACTAATAGATTAGAGCCGTCAAT
modifications: 5'-phosphate on guide RNA
- Kd [7]: 13.5 nM
